The record followed here is paper PMC2913470.

The data set deals with T1, p82 (r82; Teb1-like RPA1-related telomerase holoenzyme subunit p82) (Tetrahymena thermophila, UniProt D2CVN6 1-701).
T1 sequence: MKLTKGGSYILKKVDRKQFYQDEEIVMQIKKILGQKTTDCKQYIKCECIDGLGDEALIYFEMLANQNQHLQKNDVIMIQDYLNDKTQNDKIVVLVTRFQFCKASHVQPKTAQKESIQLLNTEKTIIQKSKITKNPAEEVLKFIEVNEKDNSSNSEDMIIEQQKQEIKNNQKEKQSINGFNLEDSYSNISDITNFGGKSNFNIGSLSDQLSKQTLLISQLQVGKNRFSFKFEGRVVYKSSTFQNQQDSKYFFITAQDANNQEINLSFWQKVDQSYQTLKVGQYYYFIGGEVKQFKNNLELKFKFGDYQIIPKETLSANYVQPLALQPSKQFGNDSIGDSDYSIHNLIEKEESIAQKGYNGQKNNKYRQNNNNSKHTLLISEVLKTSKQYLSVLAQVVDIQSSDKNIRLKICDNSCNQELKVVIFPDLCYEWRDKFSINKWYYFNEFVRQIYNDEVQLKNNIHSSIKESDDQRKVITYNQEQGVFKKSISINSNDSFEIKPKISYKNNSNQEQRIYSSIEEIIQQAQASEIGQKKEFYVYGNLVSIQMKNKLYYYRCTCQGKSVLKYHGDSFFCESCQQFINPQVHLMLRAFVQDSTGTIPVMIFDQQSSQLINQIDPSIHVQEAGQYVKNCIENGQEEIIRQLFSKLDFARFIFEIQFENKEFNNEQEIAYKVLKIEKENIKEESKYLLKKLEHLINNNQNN
The data set can be described thus: EMSA. For orientation: A gel shift assay detects complexes by their altered migration in electrophoresis.

B1: dsTelo3 (dsDNA)
DNA 1: CCCCAACCCCAACCCCAA
DNA 2: TTGGGGTTGGGGTTGGGG
As to B1, the binding result is given as “no binding”.
